Measurements as given in PMC7047619 (Arteriosclerosis, thrombosis, and vascular biology, 2020).

Biological target: wild-type αIIbβ3 on HEK 293 cells (Homo sapiens, UniProt P08514;P05106)
Test: flow cytometry on cells

| binding result | Binder |
| --- | --- |
| binds | murine mAb 7E3 (antibody, V domains shown) VH: EVQLQQSGTVLARPGASVKMSCEASGYTFTNYWMHWVKQRPGQGLEWIGAIYPGNSDTSYIQKFKGKAKLTAVTSTTSVYMELSSLTNEDSAVYYCTLYDGYYVFAYWGQGTLVTVSA VL: EIVLTQSPVTLSVTPGDSVSLSCRASRDISNNLHWFQQTSHESPRLLIKYASQSMSGIPSRFSGSGSGTDFTLSINSVETEDFGMYFCQQTNSWPYTFGGGTKLEIK |
| binds | abciximab (Fab, V domains shown) VH: EVQLQQSGTVLARPGASVKMSCEASGYTFTNYWMHWVKQRPGQGLEWIGAIYPGNSDTSYIQKFKGKAKLTAVTSTTSVYMELSSLTNEDSAVYYCTLYDGYYVFAYWGQGTLVTVSA VL: EIVLTQSPVTLSVTPGDSVSLSCRASRDISNNLHWFQQTSHESPRLLIKYASQSMSGIPSRFSGSGSGTDFTLSINSVETEDFGMYFCQQTNSWPYTFGGGTKLEIK |
